Laboratory results taken from patent publication US20210301029A1 (LYVGEN BIOPHARMA, published 2021).

How the values were obtained:
human FcγRI = target: T1, human FcγRI (human, UniProt P12314 16-374); assay: FACS on CHO cells expressing human FcγRI (MFI)
T1 construct: whole, on cells; also called CD64
Description: (§1) For FACS analysis of the IgG mutants' binding to different FcγRs, FcγR overexpressing CHO cells were harvested using trypsin-EDTA and were suspended in cold staining buffer (3% BSA in PBS). Test IgG mutants, which were diluted in staining buffer, were added into the cells. The mixture was incubated at 4° C. for 2 hours, and then washed twice with cold staining buffer and re-suspended in PE-labeled anti-human IgG followed by incubation at 4° C. for 2 hours. The mixture was washed twice with staining buffer and re-suspended in 2% PFA in PBS for FACS.

human FcγRIIB = target: T2, human FcγRIIB (human, UniProt P31994 43-310); assay: FACS on CHO cells expressing human FcγRIIB (MFI)
T2 construct: whole, on cells; also called CD32b; FcγR2B
T2 sequence (looked up): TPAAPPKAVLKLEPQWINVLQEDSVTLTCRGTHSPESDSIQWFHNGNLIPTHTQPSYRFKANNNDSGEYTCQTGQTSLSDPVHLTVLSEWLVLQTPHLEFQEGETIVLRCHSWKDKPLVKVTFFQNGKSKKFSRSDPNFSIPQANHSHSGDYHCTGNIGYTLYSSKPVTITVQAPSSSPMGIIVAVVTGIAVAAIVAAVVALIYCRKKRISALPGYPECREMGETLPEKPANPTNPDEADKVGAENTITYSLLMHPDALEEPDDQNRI
Description: as §1

human FcγRIII = target: T3, human FcγRIII (human, UniProt P08637 17-254); assay: FACS on CHO cells expressing human FcγRIIIA (MFI)
T3 construct: whole, on cells; also called FcγRIIIA; CD16a
Description: as §1

Measured: binding result

T1 sequence (P12314 16-374): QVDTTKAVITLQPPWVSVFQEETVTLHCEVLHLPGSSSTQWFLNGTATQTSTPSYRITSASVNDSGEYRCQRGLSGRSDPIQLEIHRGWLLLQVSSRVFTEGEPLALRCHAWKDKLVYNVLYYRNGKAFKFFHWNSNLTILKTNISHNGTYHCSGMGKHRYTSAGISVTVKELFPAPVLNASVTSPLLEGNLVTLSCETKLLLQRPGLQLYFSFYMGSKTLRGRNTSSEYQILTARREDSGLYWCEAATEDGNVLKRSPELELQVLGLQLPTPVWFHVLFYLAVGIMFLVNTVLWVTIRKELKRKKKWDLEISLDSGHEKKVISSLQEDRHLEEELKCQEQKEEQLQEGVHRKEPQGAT
T3 sequence (P08637 17-254): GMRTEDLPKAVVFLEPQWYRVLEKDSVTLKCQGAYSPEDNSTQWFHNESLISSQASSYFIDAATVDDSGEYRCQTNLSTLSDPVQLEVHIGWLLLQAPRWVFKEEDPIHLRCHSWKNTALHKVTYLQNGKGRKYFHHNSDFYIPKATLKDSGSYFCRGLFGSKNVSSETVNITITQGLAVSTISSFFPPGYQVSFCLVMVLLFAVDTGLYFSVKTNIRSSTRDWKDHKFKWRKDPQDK

B1: 383-huIgG4m20 (antibody)
heavy: not shown
light: DIQMTQSPSSVSASVGDRVTITCRASQGIYSWLAWYQQKPGKAPNLLIYTASTLQSGVPSRFSGSGSGTDFTLTISSLQPEDFATYYCQQANIFPLTFGGGTKVEIKRTVAAPSVFIFPPSDEQLKSGTASVVCLLNNFYPREAKVQWKVDNALQSGNSQESVTEQDSKDSTYSLSSTLTLSKADYEKHKVYACEVTHQGLSSPVTKSFNRGEC
no binding (tested: 30 µg/mL): all assays above
